# Measurements reported in patent publication US12221463B2, “Method of promoting wound healing by inhibiting CCR3” (The Board of Regents of the University of Oklahoma, priority 2020, dated 2025).
# T1: CCR3 (Homo sapiens, UniProt P51677)
# T1 sequence (P51677 1-355): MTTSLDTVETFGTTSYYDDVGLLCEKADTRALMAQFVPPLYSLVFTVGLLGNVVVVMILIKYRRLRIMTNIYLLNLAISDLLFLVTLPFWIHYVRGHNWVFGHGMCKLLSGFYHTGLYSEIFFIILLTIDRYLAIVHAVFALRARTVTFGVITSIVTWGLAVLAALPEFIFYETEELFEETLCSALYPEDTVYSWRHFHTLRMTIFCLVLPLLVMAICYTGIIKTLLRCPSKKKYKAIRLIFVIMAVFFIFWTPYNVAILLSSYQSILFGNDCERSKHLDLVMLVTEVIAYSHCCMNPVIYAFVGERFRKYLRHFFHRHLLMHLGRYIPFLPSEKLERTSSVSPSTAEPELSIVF
# B1: CCL24: CCR3-specific ligand Chemokine (C-C motif) ligand 24 (eotaxin-2), Biolegend (protein)
# chain: VVIPSPCCMFFVSKRIPENRVVSYQLSSRSTCLKAGVIFTTKKGQQFCGDPKQEWVQRYMKNLDAKQKKASPRARAVA
# B2: CCL26: CCR3-specific ligand Chemokine (C-C motif) ligand 26 (eotaxin-3), Biolegend (protein)
# chain: TRGSDISKTCCFQYSHKPLPWTWVRSYEFTSNSCSQRAVIFTTKRGKKVCTHPRKKWVQKYISLLKTPKQL
# Experiments:
# CCR3 = biological target: T1, CCR3; conditions: CCR3 agonism; Buskermolen et al. 2017; cited from earlier work
# HEKn [1] = test: Proliferation assay (PrestoBlue); format: cell-based, human; conditions: 16 hours
# Procedure: Cells were plated on a collagen I coated 96-well plate (Corning, New York, NY) at a density of 4×10^3 cells per well, and then allowed to attach overnight. The next day, cells were treated with CCL24 (Biolegend, San Diego, CA), CCL26 (Biolegend, San Diego, CA), or IGF (ThermoFisher, Waltham, MA) for 16 hours. To assess viability, PrestoBlue (Life Technologies, Carlsbad, CA) was added according to manufacturer's protocol, and results were obtained on a microplate reader (BioTek, Winooski, VT).
# HEKn [2] = test: Cell exclusion zone assay (in vitro wound closure / migration); format: cell-based, human; conditions: 16 hours
# Procedure: HEKn were seeded (2.0×10^4 per well) around the barrier of a collagen I coated Oris Cell Migration Assay 96-well plate (Platypus, West Lebanon, NH). Cells were incubated overnight to allow for cell attachment. After incubation, the circular barriers were removed (except for reference wells), and the cells were treated with either anti-CCR3 (R&D Systems, Minneapolis, MN) (2 ug/mL), IgG control (R&D Systems, Minneapolis, MN; 2 μg/mL), CCL24 (Biolegend, […], CA), CCL26 (Biolegend, San Jose, CA), or IGF (ThermoFisher, Waltham, MA; 10 ng/mL) for 16 hours. At the end of the experiment, Calcein-AM (Life Technologies, Carlsbad, CA) (2 μM) was added prior to obtaining images with a Nikon TE2000-E inverted epi-fluorescence microscope (2× objective). ImageJ (NIH) was utilized to analyze the images.
# keratinocytes = conditions: Kroeze et al. 2012, type IV collagen; cited from earlier work
Molecule,oral wound healing (CCR3),keratinocyte proliferation (HEKn [1]; 20 ng/mL),keratinocyte proliferation (HEKn [1]; 50 ng/mL),keratinocyte proliferation (HEKn [1]; 100 ng/mL),keratinocyte migration (HEKn [2]),keratinocyte proliferation (keratinocytes)
CCL28: chemokine used for CCR3 agonism in cited oral wound healing study,promote,–,–,–,–,–
B1,–,significantly reduced,significantly reduced,significantly reduced,did not significantly alter,promoted
B2,–,significantly reduced,significantly reduced,significantly reduced,did not significantly alter,–
